The target of one assay is T1, HLA-B*44:02 (human).
T1 construct: also called peptide-receptive MHC molecules
Description: UV-exchange b2m ELISA; exchange-yield grade. In short, it runs like this: (§1)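 Binding capacity is graded by how much β2m-containing, stabilised complex survives UV-induced loss of the placeholder peptide. An anti-β2m sandwich ELISA on streptavidin capture, calibrated with refolded monomers (15-500 ng/ml), measures this.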

In a further assay the target is T2, HLA-A*03:01 (human).
T2 construct: also called peptide-receptive MHC molecules
The experiment in a line: UV-exchange b2m ELISA; exchange-yield grade. In short, it runs like this:
as §1

In the case of TEVSRTEAI, the peptide exchange yield in the assay with HLA-B*44:02 lay within 20 to 50%.
With SMYYPLQLK, the peptide exchange yield with HLA-A*03:01 is 50 to 75%.
For LEKALQVF, the peptide exchange yield in the assay with HLA-B*44:02 lay in the range of 20 to 50%.
In the assay with HLA-B*44:02, RELANDELIL returned a peptide exchange yield of 20 to 50%.
Turning to RRIHTGEKPYK, in the assay with HLA-A*03:01, the peptide exchange yield lay within 20 to 50%.
VLYGPAGLGK yielded a peptide exchange yield with HLA-A*03:01 of 50 to 75%.
Turning to REGDTVQLL, the peptide exchange yield in the assay with HLA-B*44:02 lay in the range of 20 to 50%.
Consider KVAGERYVYK, for which, in the assay with HLA-A*03:01, the peptide exchange yield fell in the range of 50 to 75%.
For AEATARLNVF, the binding result in the assay with HLA-B*44:02 is listed as “binds”.
On to VVHAVFALK, for which the peptide exchange yield in the assay with HLA-A*03:01 lay in the range of 50 to 75%.
Take QEAARAAL: the peptide exchange yield in the assay with HLA-B*44:02 lay in the range of 20 to 50%.
For the molecule LELPPILVY, the peptide exchange yield with HLA-B*44:02 was in the range of 10 to 20%.
On to RMASPVNVK, for which the peptide exchange yield in the assay with HLA-A*03:01 is more than 75%.
For the molecule RVAELLLLH, the peptide exchange yield in the assay with HLA-A*03:01 fell in the range of 20 to 50%.
In the assay with HLA-A*03:01, VVLLGSLFSRK showed a peptide exchange yield of 20 to 50%.
In the case of KVVDRWNEK, the peptide exchange yield with HLA-A*03:01 is 20 to 50%.
The molecule EEAQWVRKY returned a peptide exchange yield with HLA-B*44:02 of 20 to 50%.
GMMKGGIRK yielded a peptide exchange yield with HLA-A*03:01 of 50 to 75%.
In the assay with HLA-B*44:02, KESIPRWYY returned a peptide exchange yield of 20 to 50%.
As for KLQPAQTAAK, the peptide exchange yield in the assay with HLA-A*03:01 was in the range of 20 to 50%.
For AERQPGAASL, the peptide exchange yield with HLA-B*44:02 lay in the range of 20 to 50%.
GTSPPSVEK yielded a peptide exchange yield with HLA-A*03:01 of 20 to 50%.
In the assay with HLA-B*44:02, REAGDEFELRY displayed a peptide exchange yield of 20 to 50%.
For YEKGIMQKV, the peptide exchange yield in the assay with HLA-B*44:02 lay within 20 to 50%.
In the case of MEHPGKLLF, the binding result in the assay with HLA-B*44:02 is listed as “binds”.
VLLGSLFSRK came in with a peptide exchange yield with HLA-A*03:01 of 20 to 50%.
AVRKPIVLK: the peptide exchange yield in the assay with HLA-A*03:01 was 50 to 75%.
With KEFLFNMY, in the assay with HLA-B*44:02, the peptide exchange yield lay in the range of 20 to 50%.
The molecule KILEEHTNK yielded a peptide exchange yield with HLA-A*03:01 of 20 to 50%.
Regarding RISEYLLEK, in the assay with HLA-A*03:01, the peptide exchange yield fell in the range of 20 to 50%.
For IEALSGKIEL (also called lEALSGKIEL), the peptide exchange yield with HLA-B*44:02 fell in the range of 20 to 50%.
Same read-out and setting: with GEGPKTSW the figure was 20 to 50%.
For the molecule AVAPPTPASK, the peptide exchange yield in the assay with HLA-A*03:01 was 20 to 50%.
As to QEILTQVKQ, the peptide exchange yield with HLA-B*44:02 lay within 20 to 50%.
In the assay with HLA-A*03:01, LLQPPPLLAR showed a peptide exchange yield of 20 to 50%.
On the same count and under the same terms, with RSLRYYYEK the figure was 20 to 50%.
For NEAIMHQY, in the assay with HLA-B*44:02, the peptide exchange yield lay in the range of 20 to 50%.
For IEHSTQAQDTL, the peptide exchange yield with HLA-B*44:02 is 20 to 50%.
Regarding GTVNPTVGK, the peptide exchange yield with HLA-A*03:01 is 20 to 50%.
In turn, EDGRLVIEF showed a peptide exchange yield with HLA-B*44:02 of 10 to 20%.
SEDPSKLEA returned a peptide exchange yield in the assay with HLA-B*44:02 of 10 to 20%.
Consider NEIWTHSY, for which, in the assay with HLA-B*44:02, the peptide exchange yield fell in the range of 10 to 20%.
In the assay with HLA-A*03:01, TVAPPQGVVK came in with a peptide exchange yield of 20 to 50%.
Molecule AEFLLRIFL showed a peptide exchange yield in the assay with HLA-B*44:02 of 20 to 50%.
Turning to LEAQQEAL, the peptide exchange yield in the assay with HLA-B*44:02 fell in the range of 20 to 50%.
In the case of KTYETNLEIKK, in the assay with HLA-A*03:01, the peptide exchange yield fell in the range of 50 to 75%.
Regarding SEDGLPEGIHL, the peptide exchange yield with HLA-B*44:02 lay in the range of 20 to 50%.
The same measure, in the same setting: the value for GEMEQKQL was 20 to 50%.
For the molecule KSLIKSWKK, in the assay with HLA-A*03:01, the peptide exchange yield was in the range of 20 to 50%.
In the case of YEVARILNL, the peptide exchange yield in the assay with HLA-B*44:02 lay in the range of 20 to 50%.
The same measure, in the same setting: the value for SEITRIEM was 20 to 50%; that for REGPEEPGL was 20 to 50%.
The molecule SFEQVVNELF yielded a peptide exchange yield in the assay with HLA-B*44:02 of 20 to 50%.
Take KEVDPTSHSY: the peptide exchange yield with HLA-B*44:02 was in the range of 20 to 50%.
Consider ALEVAHRLK, for which the peptide exchange yield with HLA-A*03:01 lay within 20 to 50%.
In the assay with HLA-B*44:02, VEQTRAGSLL registered a peptide exchange yield of 20 to 50%.
QSMYYPLQLK: in the assay with HLA-A*03:01, the peptide exchange yield is 20 to 50%.
The molecule GEIEIHLL displayed a peptide exchange yield with HLA-B*44:02 of 10 to 20%.
With EDAALFKAW, the peptide exchange yield with HLA-B*44:02 lay within 20 to 50%.
As for AEDKRHYSV, the peptide exchange yield with HLA-B*44:02 was in the range of 20 to 50%.
Regarding AEHEGVSVL, the peptide exchange yield in the assay with HLA-B*44:02 was in the range of 20 to 50%.
In the assay with HLA-B*44:02, AEIEPKADG returned a peptide exchange yield of 20 to 50%.
Take TEVSRTEL: the peptide exchange yield with HLA-B*44:02 was in the range of 20 to 50%.
In the assay with HLA-B*44:02, REAGDEFEL showed a peptide exchange yield of 20 to 50%.
Take ATFERVLLR: in the assay with HLA-A*03:01, the peptide exchange yield was in the range of 50 to 75%.
In the case of SLKERNPLK, in the assay with HLA-A*03:01, the peptide exchange yield was 20 to 50%.

These data come from patent US20180222961A1 (IMMATICS BIOTECHNOLOGIES, published 2018).
